Assays:
IGFBP-3 = IGFBP-3 (UniProt P17936); assay: filter; settings: 5-BrdU replaces T; apparent photocrosslink KD; plateau 52%
[1] = biological target: T1, UDP-glucuronosyl transferase (UGT) 1A1 (UniProt P22309); assay: filter; settings: 5-BrdU replaces T; apparent photocrosslink KD; plateau 70%
T1 sequence: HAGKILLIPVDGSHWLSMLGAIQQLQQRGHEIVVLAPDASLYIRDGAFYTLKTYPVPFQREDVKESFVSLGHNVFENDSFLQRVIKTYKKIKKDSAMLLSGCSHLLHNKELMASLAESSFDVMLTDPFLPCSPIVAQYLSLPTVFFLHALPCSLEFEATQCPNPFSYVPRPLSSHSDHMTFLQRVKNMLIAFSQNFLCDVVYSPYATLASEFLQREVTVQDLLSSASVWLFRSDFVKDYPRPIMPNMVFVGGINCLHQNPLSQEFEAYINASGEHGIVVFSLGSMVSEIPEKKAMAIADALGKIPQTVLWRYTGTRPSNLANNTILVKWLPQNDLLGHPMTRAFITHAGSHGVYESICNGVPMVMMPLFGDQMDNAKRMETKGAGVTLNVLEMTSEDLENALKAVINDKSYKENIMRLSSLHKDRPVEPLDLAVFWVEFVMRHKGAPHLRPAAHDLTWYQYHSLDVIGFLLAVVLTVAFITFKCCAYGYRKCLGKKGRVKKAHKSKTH

UGT 1A3 = biological target: T2, UGT 1A3 (UniProt P35503); assay: filter; settings: 5-BrdU replaces T; apparent photocrosslink KD; plateau 70%
T2 sequence: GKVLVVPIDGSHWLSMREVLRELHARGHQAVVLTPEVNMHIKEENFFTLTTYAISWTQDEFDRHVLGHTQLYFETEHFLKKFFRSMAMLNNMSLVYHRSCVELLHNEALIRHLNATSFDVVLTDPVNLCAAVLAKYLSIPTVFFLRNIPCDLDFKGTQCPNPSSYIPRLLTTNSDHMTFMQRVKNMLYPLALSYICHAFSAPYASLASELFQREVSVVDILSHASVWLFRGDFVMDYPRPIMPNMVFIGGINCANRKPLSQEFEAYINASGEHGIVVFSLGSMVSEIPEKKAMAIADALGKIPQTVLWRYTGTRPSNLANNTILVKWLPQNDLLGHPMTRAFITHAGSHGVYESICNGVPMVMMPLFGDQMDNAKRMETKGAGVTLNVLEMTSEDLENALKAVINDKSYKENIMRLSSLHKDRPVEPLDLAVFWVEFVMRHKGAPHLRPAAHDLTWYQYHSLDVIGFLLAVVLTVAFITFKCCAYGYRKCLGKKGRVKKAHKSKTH

Interleukin-4 = biological target: T3, Interleukin-4 (UniProt P05112); settings: 5-BrdU replaces T; photocrosslinking rate at 25 nM target; KD printed as ??
T3 sequence: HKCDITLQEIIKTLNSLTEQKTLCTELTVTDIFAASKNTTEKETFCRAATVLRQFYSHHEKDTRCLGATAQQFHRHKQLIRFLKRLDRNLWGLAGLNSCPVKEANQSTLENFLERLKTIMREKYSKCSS

UGT 1A10 = biological target: T4, UGT 1A10 (UniProt Q9HAW8); assay: filter; settings: 5-BrdU replaces T; apparent photocrosslink KD; plateau 72%
T4 sequence: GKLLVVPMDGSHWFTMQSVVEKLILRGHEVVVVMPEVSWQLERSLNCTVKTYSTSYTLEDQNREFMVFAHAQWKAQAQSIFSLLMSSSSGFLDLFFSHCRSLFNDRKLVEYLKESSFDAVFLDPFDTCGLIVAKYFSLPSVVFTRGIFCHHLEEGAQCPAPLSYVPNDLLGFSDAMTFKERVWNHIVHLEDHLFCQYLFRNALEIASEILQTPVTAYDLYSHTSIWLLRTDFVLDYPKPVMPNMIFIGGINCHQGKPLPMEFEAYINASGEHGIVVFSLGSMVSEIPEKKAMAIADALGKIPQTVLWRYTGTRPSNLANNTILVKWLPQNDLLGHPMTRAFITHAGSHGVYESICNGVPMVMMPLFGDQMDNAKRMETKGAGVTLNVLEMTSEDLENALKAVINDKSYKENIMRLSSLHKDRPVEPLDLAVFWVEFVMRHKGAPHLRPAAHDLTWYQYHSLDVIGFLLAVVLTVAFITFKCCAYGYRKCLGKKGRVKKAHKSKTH

[2] = biological target: Hepatocyte Growth Factor (HGF) (UniProt P14210+P14210); assay: filter; settings: 5-BrdU replaces T; apparent photocrosslink KD; plateau 73%
Hepatocyte Growth Factor (HGF), sequence (P14210 32-494, chain 1 of 2): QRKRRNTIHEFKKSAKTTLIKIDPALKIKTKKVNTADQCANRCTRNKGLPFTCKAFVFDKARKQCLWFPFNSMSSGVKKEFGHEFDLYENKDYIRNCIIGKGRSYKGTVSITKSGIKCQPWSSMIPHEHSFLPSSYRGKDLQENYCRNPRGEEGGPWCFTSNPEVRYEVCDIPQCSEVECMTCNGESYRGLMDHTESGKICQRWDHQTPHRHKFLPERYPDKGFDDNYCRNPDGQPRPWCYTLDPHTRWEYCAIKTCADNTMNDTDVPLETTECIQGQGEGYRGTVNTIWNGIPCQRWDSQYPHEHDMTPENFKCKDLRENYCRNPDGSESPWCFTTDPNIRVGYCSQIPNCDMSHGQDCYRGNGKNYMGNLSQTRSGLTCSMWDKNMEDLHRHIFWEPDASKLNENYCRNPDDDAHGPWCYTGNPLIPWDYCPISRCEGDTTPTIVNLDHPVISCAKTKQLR
Hepatocyte Growth Factor (HGF), sequence (P14210 495-728, chain 2 of 2): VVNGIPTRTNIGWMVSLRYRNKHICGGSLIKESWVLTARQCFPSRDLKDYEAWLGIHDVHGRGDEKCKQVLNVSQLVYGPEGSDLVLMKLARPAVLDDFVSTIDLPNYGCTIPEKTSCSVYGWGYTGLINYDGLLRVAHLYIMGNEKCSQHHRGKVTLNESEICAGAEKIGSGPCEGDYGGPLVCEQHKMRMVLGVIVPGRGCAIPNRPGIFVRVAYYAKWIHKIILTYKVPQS

IGFBP-3, sequence (P17936 28-291): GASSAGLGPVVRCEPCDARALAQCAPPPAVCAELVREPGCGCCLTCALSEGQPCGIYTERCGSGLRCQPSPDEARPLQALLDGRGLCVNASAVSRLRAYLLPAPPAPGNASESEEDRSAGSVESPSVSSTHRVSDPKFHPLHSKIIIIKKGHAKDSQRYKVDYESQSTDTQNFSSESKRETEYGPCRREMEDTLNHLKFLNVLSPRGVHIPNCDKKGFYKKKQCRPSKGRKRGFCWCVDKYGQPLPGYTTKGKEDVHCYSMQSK

ATATATATGGGAGGACGATGCGGGCAAAGTGTTATTTCTTGATCTGTTTCACCCAGACGACGAGCGGGAAAAAAAA [IGFBP-3 pool 112 clone 65]
Kd (IGFBP-3): 6 nM

ATATATATGGGAGGACGATGCGGCACCTGATTTCTACCCTTTACTTTGTGTGGCAGACGACGAGCGGGAAAAAAAA [UGT 1A1 pool 319 clone 73]
Kd [1]: 22 nM

ATATATATGGGAGGACGATGCGGGCCGACTTTGTCACCGAGTGCATCCGAGGTCAGACGACGAGCGGGAAAAAAAA [UGT 1A3 pool 141 clone 53]
Kd (UGT 1A3): 3.9 nM

ATATATATGGGAGGACGATGCGGGCACAGGTTCTATCAACGTTGTCCTGAGTAATTGACCTGCAGACGACGAGCGGGAAAAAAAA [IL-4 pool 012 clone 63]
photocrosslinking rate (Interleukin-4): 0.71 J-1 cm2

ATATATATGGGAGGACGATGCGGCACCACTTCTTTACCTCACTCTTTCTGCAGCAGACGACGAGCGGGAAAAAAAA [UGT 1A10 pool 140 clone 45]
Kd (UGT 1A10): 2.1 nM

ATATATATGGGAGGACGATGCGGGACGACTAGCCTAGTGCCCTTACGATCACCCAGACGACGAGCGGGAAAAAAAA [HGF pool 107 clone 23]
Kd [2]: 0.53 nM
